Measured values published in patent US10688197B2, “Non-alcoholic fatty liver regulator 14-3-3 protein” (Korea University Research and Business Foundation, priority 2015, dated 2020).

Target: T1, PPARγ2 deletion mutant (1-310) (Homo sapiens, UniProt P37231)
T1 construct: Flag-PPARγ2 (1-310) DNA (4 μg); expressed in transfected cells; host or cells: HEK-293T
T1 sequence (P37231 1-310): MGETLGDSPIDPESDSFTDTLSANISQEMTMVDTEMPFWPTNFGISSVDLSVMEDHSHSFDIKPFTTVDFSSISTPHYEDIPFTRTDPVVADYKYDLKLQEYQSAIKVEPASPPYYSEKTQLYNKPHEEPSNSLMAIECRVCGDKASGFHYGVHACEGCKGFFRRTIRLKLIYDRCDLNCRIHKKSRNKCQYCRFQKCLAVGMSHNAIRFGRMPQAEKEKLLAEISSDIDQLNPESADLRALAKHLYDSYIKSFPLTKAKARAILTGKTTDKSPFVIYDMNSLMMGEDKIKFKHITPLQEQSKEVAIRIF
Assay: GST-pull down assay with PPARγ2 deletion mutant (1-310)
Type: binding
Conditions: FIG. 3B/3C
Experimental: HEK-293T cells were seeded in a 100 mm plate at a density of 2×10^6 cells per each well, and then transfected with Flag-PPARγ2 (1-505) DNA (4 μg), Flag-PPARγ2 (1-310) DNA (4 μg), Flag-PPARγ2 (139-505) DNA (4 μg), and mGST-14-3-3β (4 μg) or mGST-14-3-3γ (4 μg) using an E-fection plus reagent (Lugen). For Flag-PPARγ2 (1-310) DNA and Flag-PPARγ2 (139-505) DNA, DNA fragments amplified through polymerase chain reaction (PCR) were cloned into a pCMV-3Tag-1 vector using restriction enzymes XhoI and ApaI. A ratio of DNA to the E-fection plus reagent was 1:2, and this method was performed according to a manufacturer's manual. The corresponding cells were washed with ice-cold PBS and lysed using 500 μl/well of a lysis buffer (150 mM NaCl, 1 mM EDTA, 1% Nonidet P-40, 5% glycerol, 25 mM tris-HCl, pH 7.5, protease inhibitor added), and the lysed cells were centrifuged at 10,000×g and 4° C. for 10 minutes to extract proteins. Thereafter, 1,000 μg of the proteins was reacted with 20 μl of glutathione Sepharose 4B beads (GE Healthcare, Buckinghamshire, UK) for 6 hours, and then washing of the beads with 1 ml of ice-cold PBS was repeated 5 times, and the beads were boiled at 100° C. for 10 minutes, followed by 10% SDS-PAGE gel separation and western blotting. A ratio of GST antibodies (Santa Cruz) to Flag antibodies (Santa Cruz) was 1:3000. […]

Row | binding to PPARγ2 deletion mutant (1-310) | Substance
1 | bound | 14-3-3β: 14-3-3 isoform protein overexpressed by DNA transfection; increases the transcriptional activity of PPARγ2 by binding to PPARγ2
2 | bound | 14-3-3γ: 14-3-3 isoform protein overexpressed by DNA transfection; decreases the transcriptional activity of PPARγ2; proposed active ingredient
